The text below walks through data of patent US20230192845A1.

The chains are these.
T1: hCD96-humanIgG1 fusion protein (human) (UniProt P40200)
T1 sequence: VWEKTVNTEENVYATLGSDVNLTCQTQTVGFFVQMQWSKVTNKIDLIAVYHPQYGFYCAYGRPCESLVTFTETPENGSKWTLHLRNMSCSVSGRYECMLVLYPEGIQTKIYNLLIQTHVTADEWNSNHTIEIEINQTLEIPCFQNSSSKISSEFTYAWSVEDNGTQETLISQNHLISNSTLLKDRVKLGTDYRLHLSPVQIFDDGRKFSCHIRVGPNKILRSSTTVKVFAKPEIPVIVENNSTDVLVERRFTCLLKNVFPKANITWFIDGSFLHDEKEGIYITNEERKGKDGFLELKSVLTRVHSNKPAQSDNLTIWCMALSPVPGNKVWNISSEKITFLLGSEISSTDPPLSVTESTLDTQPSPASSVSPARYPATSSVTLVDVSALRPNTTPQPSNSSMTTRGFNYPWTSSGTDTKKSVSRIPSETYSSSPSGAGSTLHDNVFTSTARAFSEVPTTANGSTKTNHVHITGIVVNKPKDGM

B1: BL006-19-183G3-183K4 (antibody, V domains shown)
VH: QVTLNESGPGILQPSQTLSLTCSFSGFSLTTYGMGVGWIRQPSGKSLEWLANIWWTEDKYYNSALKSRLTISTDTSHNQVFLKISSVDTEDTATYYCAQMGPEVYSAMDYWGQGTSVTVSS
VL: DIVMTPSQKFMSTTVGDRVSITCKASQNVGTAVAWYQQKPGHSPKLLIYSASNRNTGVPDRFTGSGSGTDFTLTISNMQSEDLADYFCHQYSRYPWTFGGGTKLEIK
B2: BL006-4-31G1-31K3 (antibody, V domains shown)
VH: QVQLQQSGPELVKPGASVKISCKTSGFTFTDYYINWVKQRPGQGLEWIGWIFPGSGSSFYSEIFKGQATLTVDKSSSTAYMLLSSLTSEDSAVYFCARRNYYGYGAYAMDYWGQGTSVTVSS
VL: DIQMNQSPSSLSASLGDTITITCRASQSINFWLSWYQQKPGNIPKLLIYKASNLHTGVPSRFSGSGSGTDFTLTISSLQPEDIATYYCLQGQSYPLTFGGGTKLEIK
B3: BL006-19-29G5-29K1 (antibody, V domains shown)
VH: QVTLKESGPGILQSSQTLSLTCSFSGFSLSTFGMGVSWIRKPSGKGLEWLAHIFWDDDKRYNPSLKSRLTISKDTSSNQVFLMINSMDIADTATYYCTRGSNWFAYWGQGTLVTVSA
VL: DIVLTQSPASLAVSLGQRATISCRASESVDSYGNSFMHWYQQKPGQPPKLLIYRASNLESGIPARFSGSGSRTDFTLTINPVEADDVATYYCQQSNEDPLTFGAGTKLELK
B4: BL006-9-15G1-15K5 (antibody, V domains shown)
VH: QAYLQQSGAELVRPGASVKMSCKASGYTFTSYNMHWVKQTPRQGLEWIGAVIPGNGDSFYNQKFKGKATLTVDKSSSTAYMQLSSLTSEDSAVYFCGRSSSGCIAYWGQGTLVTVSA
VL: DIVLTQSPASLAVSLGQRATISCRVSGSVDYDGDSYMNWYQQKPGQPPKLLIYAASNLESGIPARFSGSGSETDFTLNIHPVEEEDAATYYCLQSNEAPWTFGGGTKVEIK
B5: BL006-4-20G5-20K5 (antibody, V domains shown)
VH: EVQLAESGGDLVTPGGSLKLSCAASGFTFSSYGMSWVRQTPDKRLEWVATITHGGSYIYYPDSVKGRFTLSRDNAKNTLYLQMSSLKSEDTAMYYCIRHADYARFAYWGQGTLVTVSA
VL: DIQMTQTTSSLSASLGDRVTISCRPSQDISNYLNWYQQKPDGTVKLLIYYTSRLHSGVPSRFSGSGSGTDYSLTISNLEQEDIATYFCQQGNTLPWTFGGGTKLEIK
B6: BL006-9-1G1-1K1 (antibody, V domains shown)
VH: EVKLVESGGGLVKPGGSLKLSCAASGFTFSSYAMSWVRQTPERGLEWVAAIQSNGGSTFYPDTVKDRFTISRDNAKNTLYLQMSSLRSEDTALYYCVRGPFDYWGQGTTLTVSS
VL: QIVLTQSPAIMSASPGQKVTIPCSASSSVNYIHWFQQKLGSSPKLWIYDTSKLTPGVPARFSGSGSGTSYSLTISSMEAEDAASYFCHQWRSYPPTFGGGTKLEIK
B7: BL006-11-5G1-5K3 (antibody, V domains shown)
VH: EVQLVESGGGLVKPGGSLKLSCAASGFTFSSYAMSWVRQTPEKRLEWVAAINTDGASTYFPATVKDRFTISRDNAKNTLYLQMSSLRSEDTALYYCARPLEPGSWFAYWGQGTLVTVSA
VL: DVLMTQTPLSLPVSLGDQASISCRSSQSIVHSNGNTYLEWYLQKPGQSPKVLIYKVSNRFSGVPDRISGSGSGTDFTLKISRVEAGDLGVYYCFQGSHVPYTFGGGTKLEIK
B8: BL006-8-3G9-3K4 (antibody, V domains shown)
VH: QVQLQQSGAELVRPGASVKLSCKASGYRFTDYEMEWVKQTPVHGLEWIGAIDPETGGTAYNQKFKGKATVTADKSSRTAYMELRSLTSEDSAVYYCTREGDGSYGAYWGQGTLVTVSA
VL: DVMMTQTPLSLPVSLGDQASISCRSSQSIVYSNGNTYLEWYLQKPGQSPKLLMYKVSNRFSGVPDRFSGSGSGTDFTLKISRVEAEDLGVYYCFQGSHAPWTFGGGTKLEIK
B9: BL006-19-134G5-134K4 (antibody, V domains shown)
VH: QVQLQQPGAELVKPGASVKLSCKASDYTFTTYWMHWVKQRPGQGLEWIGMIHPNSDTTLYNEKFRSQATLTVDKSSSTAYIQLSRLTSEDSAVYYCVVTGTNFDYWGQGTTLAVSS
VL: QVVLTQSPAIMSASPGEKVTMTCSATSSVSYMYWYQQKPGSSPKPWIYRTSNLASGVPVRFSGSGSGTSYSLTISSMEAEDAATYYCQQWSSNPLTFGGGTKLELK
B10: BL006-19-55G10-55K7 (antibody, V domains shown)
VH: QVQLQQSGAEVVRPGTSVKMSCKAAGYTFTDNWIDWVKQRPGHGLDWIGNIFPGGNYTNYNEKFKGKATLTADTSSSTAYMQLINLTSEDSAIYYCVRAVADSQFAYWGQGTLVTVSA
VL: QIVLTQSPAIMSVSPGEKVTMTCSASSRVTYMYWYQQKPGSSPKPWIYRTSNLASGVPVRFSGSGSGTSYSLTISSMEAEDAATYYCQQWSSNPLTFGAGTKLELK
B11: BL006-19-363G1-363K1 (antibody, V domains shown)
VH: QVQLQQPGAELVKPGASVKLSCKASGYTFTTYWIHWVKQRPGQGLEWIGMILPNSGTTIYNEKFRSQATLTVDKSSSAAYMQLSRLTSEDSAVYYCAVTGTNFDYWGQGTTLTVSS
VL: QIVLTQSPAIMSASPGEKVTMTCSASSSVSYMYWYQQKPGSSPKPWIYRTSNLASGVPVRFSGSGFGTSYSLTISNMEAEDAATYYCQQWSSNPLTFGTGTKLELK
B12: BL006-19-352G9-352K8 (antibody, V domains shown)
VH: QVQLQQPGAELVKPGASVKLSCKASGYTFTSYWMHWVKQRPGQGLEWIGMIHPNGDITDYNEKFKSKATLAVDESSSTAFMQLNSLTSEDSAFYYCARASYYGSLYWGQGTTLTVSS
VL: DIVMTQSQKFMSTSVGDRVSVTCKASQNVGIAVAWYQKKPGQSPKTLIYSASTRYTGVPDRFTGSGSGTDFTLTINDVQSEDLADYFCQQYGSSPLTFGAGTKLELK
B13: BL006-19-21G1-21K1 (antibody, V domains shown)
VH: QVQLQQPGAELVKPGASVKMSCKASGYTFISYWITWVKQRPGQGLEWIGDIYPGSGHTNYNEKFKSKATLTVDTSSSTAYMQLSSLTSEDSAVYYCARPTVEAMDYWGQGTSVTVSS
VL: QIVLTQSPAIMSASPGEKVTMTCSASSSVNYMHWYQQRSGTSPKRWIYDTSKLASGVPARFSGSGSGTSYSLTISSMEAEDAATYYCQQWSNNPLTFGAGTKLELK
B14: BL006-19-370G9-370K16 (antibody, V domains shown)
VH: QVQLQQSGAELGRPGTSVKMSCKAAGYTFTNYWIGWVKQRPGHGLEWIGDIYPGGGYTNYNEKFKGKATLTADTSSSTAYIQLSSLTSEDSAIYYCARSGYYDGSPLAMDYWGQGTSVTVS
VL: QIVLTQSPTIMSASPGEKVTMTCSASSSVSYMHWYQQKSGTSPKRWIYDTSKLASGVPARFSGSGSGTSYSLTISSMEAEDAATYYCQQWSSNPPTFGSGTKLEIK
B15: BL006-4-61G5-61K1 (antibody, V domains shown)
VH: EVKLEESGGGLVQPGGSMKLSCVASGFTFSNYWMNWVRQSPEKGLEWVAQIRFKSDNYATHYAESVKGRFTISRDDSKSSVYLQMHNLRAEDTGIYYCTEFAYWGQGTLVTVSA
VL: QILLTQSPAIMSASPGEKVTMTCSASSRVNSRFLNWYQQKSGVSPKLWIYGTSNLASGVPARFSGSGSGTSYSLTISSVEAEDVATYYCQQYQSDPPITFGAGTRLELI
B16: BL006-4-52G6-52K7 (antibody, V domains shown)
VH: QVQLQQPGAELVKPGASVKLSCKASGYSFTSYWMHWVKQRPGQGLEWIGQIDPSDSYTNYNQKFKGKATLTVDKSSSTAYMQLSSLTSEDSAVYYCASGNYGPYLGNYFDYWGQGTTLTVPS
VL: DIVMSQSPSSLVVSVGEKVTMSCKSSQSLLHSTNQKNYLAWYQQKPGQSPKLLIYWASTRESGVPDRFTGSGSGTDFTLTISSVKAEDLVVYYCQQYYNYPYTFGGGTKLEIK
B17: BL006-19-190G4-190K6 (antibody, V domains shown)
VH: EVQLVESGGGLVQPGGSLKLSCAASGFTFSNYGMSWVRQTPDKRLELVATINSNGGSTYYPDSVKGRFTISRDNAKNTLYLQMSSLKSEDTAMYYCTKRGAWYFDVWGTGTTVTVSS
VL: DIQMTQSSSSFSVSLGDRVTITCKASEDIYNRLAWYQQKPGNAPRLLISSATSLETGVSSRFSGSGSGKDYTLSITSLQTEDVATYYCQQYWTTPTWTFGGGTKLEIK

The test addresses T1, hCD96-humanIgG1 fusion protein (human). The experiment in a line: SPR (Biacore), hCD96-hFc captured by anti-huFc. Background: SPR reads the build-up and loss of mass on a sensor chip optically.
The term Kd denotes the concentration at which binding is half-saturated. A low value points to tighter binding. As usually defined, the koff is the rate constant with which the complex falls apart. A higher koff goes with a short-lived complex. For orientation: kon means the second-order rate constant of association. High values mean faster complex formation, low ones slower complex formation. In turn, B1 registered a Kd of 0.45 nM, a koff of 0.000296 s⁻¹ and a kon of 656000 M⁻¹ s⁻¹.

Molecule B2 showed an equilibrium dissociation constant (Kd) of 13.2 nM, a koff of 0.0007 s⁻¹ and a kon of 53100 M⁻¹ s⁻¹.

Consider B3, for which the equilibrium dissociation constant (Kd) worked out at 0.182 nM, the koff was determined as 0.000163 s⁻¹ and the on-rate (kon) was 896000 M⁻¹ s⁻¹.

B4 gave a Kd of 4.6 nM, a koff of 0.00275 s⁻¹ and a kon of 598000 M⁻¹ s⁻¹.

B5 displayed a dissociation constant (Kd) of 0.825 nM, a koff of 0.00057 s⁻¹ and an on-rate (kon) of 691000 M⁻¹ s⁻¹.

For the molecule B6, the Kd worked out at 0.198 nM, the koff stood at 0.00016 s⁻¹ and the kon amounted to 810000 M⁻¹ s⁻¹.

B7 came in with a Kd of 3.47 nM, a koff of 0.000579 s⁻¹ and a kon of 167000 M⁻¹ s⁻¹.

For the molecule B8, the Kd was 0.351 nM, the off-rate (koff) came out at 0.000192 s⁻¹ and the kon was 548000 M⁻¹ s⁻¹.

As for B9, the dissociation constant (Kd) was determined as 0.707 nM, the koff was 9.88e-05 s⁻¹ and the kon was found to be 140000 M⁻¹ s⁻¹.

In turn, B10 returned a Kd of 3.45 nM, a dissociation rate constant (koff) of 0.000501 s⁻¹ and a kon of 145000 M⁻¹ s⁻¹.

The molecule B11 returned a Kd of 3.5 nM, a koff of 0.000585 s⁻¹ and a kon of 167000 M⁻¹ s⁻¹.

B12: the Kd came to 23.4 nM, the koff is 0.000796 s⁻¹ and the kon worked out at 34100 M⁻¹ s⁻¹.

With B13, the equilibrium dissociation constant (Kd) turned out to be 6.75 nM, the off-rate (koff) is 0.000988 s⁻¹ and the kon turned out to be 146000 M⁻¹ s⁻¹.

With B14, the Kd turned out to be 42.3 nM, the off-rate constant (koff) was 0.00193 s⁻¹ and the on-rate (kon) is 45500 M⁻¹ s⁻¹.

B15 gave a Kd of 0.364 nM, an off-rate constant (koff) of 0.000153 s⁻¹ and an on-rate (kon) of 420000 M⁻¹ s⁻¹.

Take B16: the Kd amounted to 2.83 nM, the koff stood at 0.000363 s⁻¹ and the association rate constant (kon) was 128000 M⁻¹ s⁻¹.

Turning to B17, the dissociation constant Kd turned out to be 2.97 nM, the off-rate (koff) came out at 0.000444 s⁻¹ and the kon is 150000 M⁻¹ s⁻¹.
